The text below walks through data of the supplement of paper PMC10567573.

The chains are these.
B1: LCOR (parent)
chain: PCAGSTSLSHSPGCSSTQGNGRPG
B2: PTPRD (parent)
chain: LTKLREMGREKCHQYWPAERSARY
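Note: lentivirally expressed fusions sorted by FACS into six bins by GFP to DsRed ratio, PSI derived from sequencing read proportions per bin multiplied by bin number.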

One series covers variants of B1. Briefly: protein stability index of a GFP-peptide fusion (GPS, HEK-293T) (PSI 1-6); higher = more stable. The conditions noted are these: c terminus: a fixed tail appended.
Take PCAGSTHLSHSPGCSSTQGNGRPG [S7H]: the protein stability index was found to be 2.42. On to PCAGSTQLSHSPGCSSTQGNGRPG [S7Q], for which the protein stability index is 3.23. The same measure, in the same setting: under PCAGSTTLSHSPGCSSTQGNGRPG [S7T] stands 3.19; under PCAGSTNLSHSPGCSSTQGNGRPG [S7N], 3.43. Same read-out and setting: with PCAGSTSLSPSPGCSSTQGNGRPG [H10P] the figure was 3.37; with PCAGSTSLSISPGCSSTQGNGRPG [H10I], 3.89. As to PCAGSTSLSCSPGCSSTQGNGRPG [H10C], the protein stability index stood at 2.72. PCAGSTSLSTSPGCSSTQGNGRPG [H10T]: the protein stability index was 4.4.

Take PCAGSTSLSRSPGCSSTQGNGRPG [H10R]: the protein stability index was 3.41. As to PCAGSTSLSASPGCSSTQGNGRPG [H10A], the protein stability index stood at 4.02. For PCAGSTSLSSSPGCSSTQGNGRPG [H10S], the protein stability index is 4.29. On the same count and under the same terms, with PCAGSTSLSESPGCSSTQGNGRPG [H10E] the figure was 5.05; with PCAGSTSLSLSPGCSSTQGNGRPG [H10L], 4.39; with PCAGSTSLSDSPGCSSTQGNGRPG [H10D], 4.89. The same measure, in the same setting: under PCAGSTSLSKSPGCSSTQGNGRPG [H10K] stands 4.86; under PCAGSTSLSYSPGCSSTQGNGRPG [H10Y], 4.3; under PCAGSTSLSQSPGCSSTQGNGRPG [H10Q], 4.94. For PCAGSTSLSHGPGCSSTQGNGRPG [S11G], the protein stability index is 2.96. As to PCAGSTSLSHWPGCSSTQGNGRPG [S11W], the protein stability index was 2.74.

For the variant PCAGSTSLSHYPGCSSTQGNGRPG [S11Y], the protein stability index amounted to 2.9. Regarding PCAGSTSLSHNPGCSSTQGNGRPG [S11N], the protein stability index was determined as 2.75. Still for that read-out and setting: with PCAGSTSLSHMPGCSSTQGNGRPG [S11M] the figure was 3.28.

For the variant PCAGSTSLSHDPGCSSTQGNGRPG [S11D], the protein stability index amounted to 4. As to PCAGSTSLSHQPGCSSTQGNGRPG [S11Q], the protein stability index turned out to be 3.27. Same read-out and setting: under PCAGSTSLSHIPGCSSTQGNGRPG [S11I] stands 2.18; under PCAGSTSLSHKPGCSSTQGNGRPG [S11K], 2.81; under PCAGSTSLSHCPGCSSTQGNGRPG [S11C], 1.94. On the same count and under the same terms, under PCAGSTSLSHPPGCSSTQGNGRPG [S11P] stands 3.16.

As for PCAGSTSLSHFPGCSSTQGNGRPG [S11F], the protein stability index worked out at 3.1. In the case of PCAGSTSLSHHPGCSSTQGNGRPG [S11H], the protein stability index stood at 3.3.

Regarding PCAGSTSLSHVPGCSSTQGNGRPG [S11V], the protein stability index was found to be 2.86.

Regarding PCAGSTSLSHAPGCSSTQGNGRPG [S11A], the protein stability index came to 2.63. Still for that read-out and setting: with PCAGSTSLSHRPGCSSTQGNGRPG [S11R] the figure was 2.53; with PCAGSTSLSHEPGCSSTQGNGRPG [S11E], 3.73; with PCAQSTSLSHSPGCSSTQGNGRPG [G4Q], 4.2. The same measure, in the same setting: under PCARSTSLSHSPGCSSTQGNGRPG [G4R] stands 4.25; under PCALSTSLSHSPGCSSTQGNGRPG [G4L], 2.43; under PCAPSTSLSHSPGCSSTQGNGRPG [G4P], 4.17. Regarding PCAFSTSLSHSPGCSSTQGNGRPG [G4F], the protein stability index was 1.98.

PCAASTSLSHSPGCSSTQGNGRPG [G4A]: the protein stability index was 2.7. On the same count and under the same terms, under PCASSTSLSHSPGCSSTQGNGRPG [G4S] stands 3.56. The same measure, in the same setting: under PCAMSTSLSHSPGCSSTQGNGRPG [G4M] stands 2.92; under PCAKSTSLSHSPGCSSTQGNGRPG [G4K], 4.38. Same read-out and setting: under PCAHSTSLSHSPGCSSTQGNGRPG [G4H] stands 3.52; under PCATSTSLSHSPGCSSTQGNGRPG [G4T], 3.71. As to PCAISTSLSHSPGCSSTQGNGRPG [G4I], the protein stability index was found to be 2.28. The same measure, in the same setting: with PCAESTSLSHSPGCSSTQGNGRPG [G4E] the figure was 4.2; with PCAGSTSLSHSPCCSSTQGNGRPG [G13C], 1.44.

Regarding PCAGSTSLSHSPDCSSTQGNGRPG [G13D], the protein stability index came out at 3.23. The same measure, in the same setting: under PCAGSTSLSHSPKCSSTQGNGRPG [G13K] stands 3.39; under PCAGSTSLSHSPHCSSTQGNGRPG [G13H], 3.46; under PCAGSTSLSHSPMCSSTQGNGRPG [G13M], 2.56. Same read-out and setting: under PCAGSTSLSHSPFCSSTQGNGRPG [G13F] stands 2.93; under PCAGSTSLSHSPNCSSTQGNGRPG [G13N], 3.61. Turning to PCAGSTSLSHSPQCSSTQGNGRPG [G13Q], the protein stability index came out at 2.56. Still for that read-out and setting: under PCAGSTSLSHSPRCSSTQGNGRPG [G13R] stands 3.6; under PCCGSTSLSHSPGCSSTQGNGRPG [A3C], 4.78; under PCVGSTSLSHSPGCSSTQGNGRPG [A3V], 3.87. Same read-out and setting: with PCGGSTSLSHSPGCSSTQGNGRPG [A3G] the figure was 3.4; with PCMGSTSLSHSPGCSSTQGNGRPG [A3M], 3.63; with PCSGSTSLSHSPGCSSTQGNGRPG [A3S], 3.73. Same read-out and setting: under PCEGSTSLSHSPGCSSTQGNGRPG [A3E] stands 2.77; under PCQGSTSLSHSPGCSSTQGNGRPG [A3Q], 4.08. On to PCDGSTSLSHSPGCSSTQGNGRPG [A3D], for which the protein stability index was 4.98.

Consider PCYGSTSLSHSPGCSSTQGNGRPG [A3Y], for which the protein stability index was 3.21. On the same count and under the same terms, with PCLGSTSLSHSPGCSSTQGNGRPG [A3L] the figure was 3.93; with PCIGSTSLSHSPGCSSTQGNGRPG [A3I], 4.1; with PCKGSTSLSHSPGCSSTQGNGRPG [A3K], 4.69.

Regarding PCHGSTSLSHSPGCSSTQGNGRPG [A3H], the protein stability index worked out at 4.

Regarding PCTGSTSLSHSPGCSSTQGNGRPG [A3T], the protein stability index was 3.06. With PCAGSWSLSHSPGCSSTQGNGRPG [T6W], the protein stability index was 2.84. As for PCAGSFSLSHSPGCSSTQGNGRPG [T6F], the protein stability index is 2.91. On the same count and under the same terms, under PCAGSDSLSHSPGCSSTQGNGRPG [T6D] stands 4.35; under PCAGSPSLSHSPGCSSTQGNGRPG [T6P], 3.69. As for PCAGSESLSHSPGCSSTQGNGRPG [T6E], the protein stability index amounted to 5.02.

As to PCAGSYSLSHSPGCSSTQGNGRPG [T6Y], the protein stability index came to 3.39. On to PCAGSHSLSHSPGCSSTQGNGRPG [T6H], for which the protein stability index was found to be 3.11.

On to PCAGSRSLSHSPGCSSTQGNGRPG [T6R], for which the protein stability index was 4.93. For PCAGSSSLSHSPGCSSTQGNGRPG [T6S], the protein stability index was determined as 2.77.

Consider PCAGSVSLSHSPGCSSTQGNGRPG [T6V], for which the protein stability index was 3.9. The same measure, in the same setting: under PCAGSKSLSHSPGCSSTQGNGRPG [T6K] stands 2.71.

In the next series the parent is B2. The description is as above. The conditions noted are these: c terminus: a fixed tail appended.
In the case of LTKLREMGREKCHQYWPAERSARW [Y24W], the protein stability index came to 2.46. With LTKLREMGREKCHQYWPAERSART [Y24T], the protein stability index was 2.35.

LTKLREMGREKCHQYWPAERSARP [Y24P]: the protein stability index stood at 2.5.

For the variant LTKLREMGREKCHQYWPAERSARM [Y24M], the protein stability index is 2.12. On the same count and under the same terms, under LTKLREMGREKCHQYWPAERSARI [Y24I] stands 2.29; under LTKLREMGREKCHQYWPAERSARV [Y24V], 2.41. On the same count and under the same terms, under LTKLREMGREKCHQYWPAERSARL [Y24L] stands 2.31; under LTKLREMGREKCHQYWPAERSARK [Y24K], 3.02.

Regarding LTKLREMGREKCHQYWPAERSARN [Y24N], the protein stability index was 3.2.

Consider LTKLREMGREKCHQYWPAERSARR [Y24R], for which the protein stability index is 2.7. On the same count and under the same terms, under LTKLREMGREKCHQYWPAERSARQ [Y24Q] stands 2.65.

Regarding LTKLREMGREKCHQYWPAERSARH [Y24H], the protein stability index was 2.75. On to LTKLREMGREKCHQYWPAERSARS [Y24S], for which the protein stability index was found to be 3.01.
